Measurements published in patent US20130039922A1 (YEDA RESEARCH AND DEVELOPMENT, published 2013).
Each block holds one binder with its values, some of them ahead of it.

What was measured:
[1] = molecular target: T1, mouse MMP-9 catalytic domain (mouse, UniProt P41245 107-215; P41245 391-443, biotinylated (site not stated)); experiment: ELISA, biotinylated mouse catalytic MMP-9 on streptavidin plate, soluble antibody
T1 construct: range 107-215;range 391-443; also called Biotinylated mouse catalytic MMP-9; not shown: N-terminal His tag from the pET3a construct
T1 sequence (looked up): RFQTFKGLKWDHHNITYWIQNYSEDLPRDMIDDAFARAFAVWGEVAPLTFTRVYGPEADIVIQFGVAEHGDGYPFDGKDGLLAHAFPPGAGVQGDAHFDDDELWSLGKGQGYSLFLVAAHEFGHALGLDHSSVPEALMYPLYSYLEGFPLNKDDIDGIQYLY
Experimental: ELISA Binding Assay: Biotinylated mouse catalytic MMP-9 was coupled to streptavidin coated microtiter plate (Nunc) according to manufacture protocol. After the plates were coated, they were incubated with the SDS3/4 mAb for 2 hours at room temperature. The plates were washed, and bound Ab was detected with peroxidase-labeled goat anti-mouse IgG (Jackson) according to standard procedures. EC₅₀, or concentration of half-maximal binding was calculated from a four-parametric sigmoidal-curve fitting analysis.

[2] = molecular target: T2, human MT1-MMP catalytic domain (human, UniProt P50281 114-290); experiment: cell-based or functional assay
[3] = molecular target: T3, active MMP-9 (as used in the enzymatic kinetic assay and the XAS studies); experiment: cell-based or functional assay
[4] = molecular target: MMP-2 (as used in the enzymatic kinetic assay); experiment: cell-based or functional assay
Chain of MMP-2 (as used in the enzymatic kinetic assay) (P33434 110-467): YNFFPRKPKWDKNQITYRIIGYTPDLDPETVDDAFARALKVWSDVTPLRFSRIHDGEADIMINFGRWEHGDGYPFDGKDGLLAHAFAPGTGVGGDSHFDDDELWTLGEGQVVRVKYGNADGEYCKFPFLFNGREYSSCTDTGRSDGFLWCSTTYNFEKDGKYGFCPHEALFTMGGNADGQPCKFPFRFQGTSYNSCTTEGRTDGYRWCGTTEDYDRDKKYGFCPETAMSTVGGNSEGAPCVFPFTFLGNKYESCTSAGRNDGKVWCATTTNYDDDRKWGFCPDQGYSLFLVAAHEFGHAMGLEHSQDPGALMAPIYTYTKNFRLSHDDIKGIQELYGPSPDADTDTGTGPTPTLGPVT

[5] = molecular target: T4, MMP-9 catalytic fibronectin fragment (human or mouse (not told which)); experiment: SPR (BIAcore 3000), biotin-labeled MMP-9 on SA chip, antibody in flow
T4 construct: domain: catalytic fibronectin fragment; Immobilized on a streptavidin (SA) sensor chip for SPR; also called Biotinylated human or mouse MMP-9 catalytic fibronectin fragment; Biotin-labeled MMP-9
From the text: (§1) FIGS. 13A-B are graphs illustrating results of SPR analysis of SDS3/SDS4 binding to MMP-9. Biotinylated human or mouse MMP-9 catalytic fibronectin fragment was immobilized on streptavidin (SA) chip. Control-corrected sensorgrams corresponding to the interaction of SDS3(FIG. 13A) and SDS4 (FIG. 13B) with biosensor surface-immobilized MMP-9 are shown. Antibody concentrations are represented by different colors, with specific values indicated. The data were collected in duplicate, and representative SPR sensorgrams in the ligand concentration series are shown. The ka (1/Ms) and kd (1/s) values were determined by SPR analysis, and KD (M) was calculated from ka and kd (KD=kd/ka).RU,response units.
(§2) The affinity between SDS3/SDS4 and human and mouse MMP-9 catalytic fibronectin fragment was measured with a BIAcore 3000 instrument (BIACORE). Biotin-labeled MMP-9 was immobilized on a sensor chips SA by the biotin-streptavidin coupling method, according to the manufacturer's instructions. All measurements were carried out at 25° C. and with a flow rate of 20 μl/min for both the association and dissociation phases in TBS buffer (50 mM Tris, 100 mM NaCl, 5 mM CaCl₂, pH 7.5). The interaction was monitored as the change in the SPR response. The association and dissociation rate constants, kₐ and kd, were determined by analysis of the appropriate regions of the sensogram using the BIAevaluation 3.2 software package (Pharmacia). The apparent equilibrium dissociation constant KD was determined from the ratio of the two rate constants (kd/kₐ).

[6] = molecular target: T4, MMP-9 catalytic fibronectin fragment; experiment: SPR (BIAcore 3000), biotin-labeled MMP-9 on SA chip, antibody in flow; KD=kd/ka
From the text: as §1
as §2, with “All measurements were carried out at 25° C. and with a flow rate of 20 μl/min for both the association and dissociation phases in TBS buffer (50 mM Tris, 100 mM NaCl, 5 mM CaCl₂, pH 7.5).” left out

[7] = molecular target: T2, human MT1-MMP catalytic domain; experiment: enzyme kinetics, fluorogenic peptide hydrolysis, fit to competitive inhibition
Experimental: (§3) Similarly the enzymatic activity of TACE was measured by monitoring the degradation of fluorogenic peptide QF-45 (Mca-[…]dinitrophenyl)-NH2) (SEQ ID NO: 2). A range of different mAb concentrations (0.4-30 μM) were pre-incubated with 2 nM of active enzyme in 50 mM Tris buffer (pH 7.5 37° C.), 200 mM NaCl, 5 mM CaCl₂, and 0.05% Brij 35 for 40 minutes at 37° C. The enzymatic reaction was initiated by addition of 10 μM of the fluorogenic peptide. Fluorescence (as a measure of substrate degradation) was immediately recorded continuously for 30-50 minutes. Initial reaction rates were measured and inhibition constants were evaluated by fitting to equation of competitive inhibition (vi/vo=Km+[S]/(Km(1+I/Ki)+[S]) [I. H. Segel, Enzyme Kinetics (Wiley-Interscience Publication, 1993)], where vi is initial velocity in the presence of mAb, vo is the initial velocity in the absence of mAb inhibitor, S is substrate concentration Km is the Michaelis-Menten constant and I is mAb concentration.
(§4) The effect of SDS3 and SDS4 on MMPs' enzymatic activity was examined using to standard peptide hydrolysis assay based on conversion of fluorogenic peptide substrate [C. G. Knight, F. Willenbrock, G. Murphy, FEBS Lett 296, 263 (Jan. 27, 1992)] as well as native gelatin substrate. Initial reaction velocities were measured in the presence of several concentrations of metallobodies incubated with various MMPs and tumor necrosis factor-alpha converting enzyme (TACE).

[8] = molecular target: T3, active MMP-9 (as used in the enzymatic …); experiment: as above
Experimental: as §3, §4

[9] = molecular target: MMP-2 (as used in the enzymatic kinetic assay); experiment: as above
Experimental: as §3, §4

Human pro-MMP-2 = molecular target: T5, Human pro-MMP-2 (human, UniProt P08253 30-660); experiment: pull-down with SDS3 on protein A beads, SDS-PAGE, Coomassie staining
T5 construct: Zymogen with pro-domain; also called MMP-2 zymogen
T5 sequence (looked up): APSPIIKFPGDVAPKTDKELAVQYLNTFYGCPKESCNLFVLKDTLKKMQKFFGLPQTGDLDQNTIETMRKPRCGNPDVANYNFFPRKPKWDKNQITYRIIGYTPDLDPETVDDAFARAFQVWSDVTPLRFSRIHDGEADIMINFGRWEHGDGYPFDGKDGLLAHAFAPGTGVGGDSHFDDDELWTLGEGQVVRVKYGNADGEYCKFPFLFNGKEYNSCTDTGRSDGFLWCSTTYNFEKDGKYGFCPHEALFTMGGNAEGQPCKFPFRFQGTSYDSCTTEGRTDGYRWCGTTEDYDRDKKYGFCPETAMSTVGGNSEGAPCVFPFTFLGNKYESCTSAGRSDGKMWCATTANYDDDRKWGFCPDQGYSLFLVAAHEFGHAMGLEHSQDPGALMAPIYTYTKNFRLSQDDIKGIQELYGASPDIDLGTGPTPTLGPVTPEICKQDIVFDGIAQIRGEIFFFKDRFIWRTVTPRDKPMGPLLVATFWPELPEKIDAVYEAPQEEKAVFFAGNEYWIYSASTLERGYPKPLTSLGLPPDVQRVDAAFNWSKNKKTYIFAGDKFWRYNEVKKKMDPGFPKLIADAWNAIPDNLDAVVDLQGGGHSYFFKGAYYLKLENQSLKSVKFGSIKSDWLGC
Experimental: (§5) FIGS. 7A-B are photographs illustrating that SDS3 recognizes only the active conformation of MMP-2 and -9. FIG. 7A: Western blot analyses of MMP-9 using commercial anti-MMP-9 antibody. Lane 1—SDS3 captured from mice ascetic fluid by protein G beads; lane 2—As control non-related IgG similarly captured; lane 3—ProMMP-9, as a molecular weight marker to discern the active species. FIG. 7B: SDS3 mAb immobilized to protein A beads was analyzed for its ability to pull down purified ProMMP-9 (top), ProMMP-2 (middle) or active MMP-2 (bottom). Immunoprecipitates (lane 1) and unbound fraction (lane 2) were separated on SDS/PAGE gel, and visualized by Coomassie-staining. As a negative control for non-specific adsorption, enzyme alone was incubated with protein A Sepharose beads (lane 3).
(§6) After washing unbound antibody, purified enzyme ProMMP-9, Pro-MMP-2, or active MMP-2 fragment (catalytic and fibronectin domain), was added following 2 hour incubation under continuous stirring at room temperature. Bead-bound immune complex was collected by centrifugation and washed three times with PBS. Bound proteins were eluted with SDS sample buffer, fractionated by SDS-PAGE, and detected by Coomassie blue staining. As negative control for non specific adsorption enzyme was incubated with protein A Sepharose beads.

Human Pro-MMP-9 = molecular target: T6, Human Pro-MMP-9 (human, UniProt P14780 20-707); experiment: as above
T6 construct: Zymogen with pro-domain; also called MMP-9 zymogen
T6 sequence (P14780 20-707): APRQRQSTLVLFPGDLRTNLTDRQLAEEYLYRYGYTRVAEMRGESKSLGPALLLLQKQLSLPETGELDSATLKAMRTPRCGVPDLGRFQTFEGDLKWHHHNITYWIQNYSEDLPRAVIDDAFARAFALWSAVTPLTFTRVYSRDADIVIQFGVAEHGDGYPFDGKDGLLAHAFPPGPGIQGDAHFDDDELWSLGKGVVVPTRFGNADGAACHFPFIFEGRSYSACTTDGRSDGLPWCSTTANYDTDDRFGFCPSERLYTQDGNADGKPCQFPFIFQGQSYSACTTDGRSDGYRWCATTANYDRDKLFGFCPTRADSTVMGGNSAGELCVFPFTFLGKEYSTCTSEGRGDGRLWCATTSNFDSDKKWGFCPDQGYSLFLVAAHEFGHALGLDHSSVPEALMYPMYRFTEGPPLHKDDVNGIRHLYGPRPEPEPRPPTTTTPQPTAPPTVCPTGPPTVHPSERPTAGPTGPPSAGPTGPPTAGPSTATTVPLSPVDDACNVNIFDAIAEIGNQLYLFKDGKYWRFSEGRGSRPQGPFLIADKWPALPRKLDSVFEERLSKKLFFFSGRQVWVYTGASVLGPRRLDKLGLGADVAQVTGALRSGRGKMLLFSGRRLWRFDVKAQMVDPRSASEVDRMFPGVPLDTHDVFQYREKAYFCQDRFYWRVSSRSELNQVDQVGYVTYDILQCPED
Experimental: as §5, §6

[10] = molecular target: T3, active MMP-9 (as used in the enzymatic …); experiment: cell-based or functional assay; remark: listed apart in the source
[11] = molecular target: T7, native bovine serum albumin (bovine, UniProt P02769 25-607); experiment: ELISA screen of hybridoma supernatants on plate-absorbed antigen
T7 construct: Unconjugated carrier protein used as the counter-screen in the hybridoma ELISA; also called native BSA; BSA
T7 sequence (P02769 25-607 limits assumed): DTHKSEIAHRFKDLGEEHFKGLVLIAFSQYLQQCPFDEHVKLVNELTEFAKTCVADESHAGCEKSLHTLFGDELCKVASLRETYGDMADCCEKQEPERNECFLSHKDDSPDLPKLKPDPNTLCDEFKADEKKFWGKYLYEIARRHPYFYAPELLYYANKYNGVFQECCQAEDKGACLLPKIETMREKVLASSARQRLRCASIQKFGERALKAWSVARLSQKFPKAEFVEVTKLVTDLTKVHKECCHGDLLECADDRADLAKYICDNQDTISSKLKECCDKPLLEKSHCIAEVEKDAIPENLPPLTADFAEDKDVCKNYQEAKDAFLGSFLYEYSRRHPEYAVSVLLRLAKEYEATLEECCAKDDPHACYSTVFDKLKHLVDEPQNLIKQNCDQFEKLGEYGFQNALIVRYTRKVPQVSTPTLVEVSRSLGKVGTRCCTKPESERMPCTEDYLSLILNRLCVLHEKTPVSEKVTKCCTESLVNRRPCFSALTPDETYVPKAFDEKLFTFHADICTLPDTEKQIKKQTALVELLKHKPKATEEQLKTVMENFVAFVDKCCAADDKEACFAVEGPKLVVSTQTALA
Experimental: Preparation of Anti-MMP Metallobodies Using Zn-Tripod-KLH as an Immunogen: Female BALB/c mice were immunized on day 1 with complete Freund adjuvant and 50 μg of Zinc-Tripod-KLH and boosted every two weeks with incomplete Freund adjuvant by emulsifying and intraperitoneal injection. Spleen cells from the immunized mice were fused with NSO murine myeloma cells and cultured in HAT (hypoxantine/aminopterin/thymidine) selection medium. The culture supernatants of the hybridoma were screened using an ELISA, employing pairs of wells in microtiter plates on which were absorbed MMP-9 catalytic domain and Zinc-Tripod-BSA as antigens (0.5 μg of MMP-9 or Zinc-Tripod-BSA conjugate per well). After incubation with 100 μl of the hybridoma supernatants, and with intervening washes with Tris-buffered saline, pH 7.5, containing 0.05% Tween 20 (TBS-Tween), the wells were incubated with a peroxidase-conjugated goat anti-mouse IgG, followed by a substrate solution containing 2′-azino-bis(3-ethylbenzthiazoline-6-sulfonic acid) diammonium salt. Hybridoma cells, corresponding to the supernatants that were positive on both MMP-9 and Zinc-Tripod—BSA and negative on native BSA, were then cloned by limited dilution. After repeated screenings, four clones showing the most distinctive recognition of both antigens were obtained and clone SDS3 was chosen for further characterization.

EC50 [1]: 15 nM | IC50 of inhibition of enzymatic activity (fluorogenic peptide hydrolysis) [2]: 1420 nM | IC50 of inhibition of enzymatic activity (fluorogenic peptide hydrolysis) [3]: 70 nM | IC50 of inhibition of enzymatic activity (fluorogenic peptide hydrolysis) [4]: 56 nM | koff [5]: 0.00166 s⁻¹ | kon [5]: 439000 M⁻¹ s⁻¹ | Kd [6]: 3.78 nM | Ki [7]: 1400 nM | Ki [8]: 54 nM | Ki [9]: 54 nM
B1: SDS4 (antibody, V domains shown)
VH: EVQLQQSGPELVKPGASVKISCKASGYTFTGYYMHWVKQSPEKSLEWIGEINPSTGGTTYNQKFTGKATLTVDKSSSTAYMQLKSLTSDDSAVYYCASYYRYDWFAYWGQGTLVTVSA
VL: DVLMTQTPLSLPVSLGDQASISCRSSQSLVHSNGNTYLHWYLQKPGQSPKLLIYKVSNRFSGVPDRFSGSGSGTDFTLKISRVEAEDLGVYFCSQSTHVPFTFGSGTKLELKR
notes: Mouse hybridoma monoclonal antibody raised against Zn-Tripod-KLH; also called SDS4 mAb; SDS4 metallobody

EC50 [1]: 200 nM | binding result (Human pro-MMP-2): no binding | binding result (Human Pro-MMP-9): no binding | IC50 of inhibition of enzymatic activity (fluorogenic peptide hydrolysis) [3]: 1000 nM | IC50 of inhibition of enzymatic activity (fluorogenic peptide hydrolysis) [4]: 1400 nM | IC50 (read off the curve) [10]: ~3000 nM | binding result [11]: no binding | koff [5]: 0.00135 s⁻¹ | kon [5]: 6640 M⁻¹ s⁻¹ | Kd [6]: 200 nM | Ki [8]: 1000 nM | Ki [9]: 1000 nM
B2: SDS3 (antibody, V domains shown)
VH: VQLQESGGGLVKPGGSLKLSCAASGFAFSTYDMSWIRQTPEKRLEWVATISSGGSYTYYPDSVKGRFTISKDNARNTLYLQMSSLRSGDTALYYCTRFRYDGWYFDVWGQG
VL: DVLITQTPLSLPVSLGDQASISCRSSQSIVHSNGNTFLEWYLQKPGQSPKLLIYKVSNRFSGVPDRFSGSGSGTDFTLKISRVEAEDLGVYYCFQASHVPPTFGGG
notes: Mouse hybridoma monoclonal antibody raised against Zn-Tripod-KLH; also called SDS3 mAb; SDS3 metallobody
